Here are results for four molecules from US20260216242A1, “ALPP-SPECIFIC VARIANT ANTIGEN BINDING MOLECULES” (ALMAC DISCOVERY LIMITED, priority 2022, published 2026).

What is called IC50 is the point on the concentration scale where inhibition reaches its midpoint. Higher therefore signals weaker potency in that assay.

B1: A06 F05-hFc (S239/442C T366Y/Y407T) [G4S]3 conjugated to MC-vc-PAB-MMAE (Fc fusion, DAR 4.0)
chain 1: QVHLVESGGGLVQAGGSLRLSCAASGRTFLSMGWFRQAPGKEREFVAAISWTGGSTGYADSVKGRFTISRESDKETMYLQMNSLKPEDTAVYYCAARGDVYYGGDDATRYKYWGQGTQVTVSSGGGGSGGGGSGGGGSEPKSSDKTHTCPPCPAPELLGGPCVFLFPPKPKDTLMISRTPEVTCVVVDVSHEDPEVKFNWYVDGVEVHNAKTKPREEQYNSTYRVVSVLTVLHQDWLNGKEYKCKVSNKALPAPIEKTISKAKGQPREPQVYTLPPSRDELTKNQVSLYCLVKGFYPSDIAVEWESNGQPENNYKTTPPVLDSDGSFFLYSKLTVDKSRWQQGNVFSCSVMHEALHNHYTQKSLCLSPGK
chain 2: QVQLVESGGGLVQAGGSLRLSCAASGRAFGDYNIGWFRQAPGKEREFVARRTWDGSSTRYDDSVKGRFTVSIDNAKNTAYLQMNSLKTEDTAVYYCAAGRYSRVRGWEYDYWGQGTQVTVSSGGGGSGGGGSGGGGSEPKSSDKTHTCPPCPAPELLGGPCVFLFPPKPKDTLMISRTPEVTCVVVDVSHEDPEVKFNWYVDGVEVHNAKTKPREEQYNSTYRVVSVLTVLHQDWLNGKEYKCKVSNKALPAPIEKTISKAKGQPREPQVYTLPPSRDELTKNQVSLTCLVKGFYPSDIAVEWESNGQPENNYKTTPPVLDSDGSFFLTSKLTVDKSRWQQGNVFSCSVMHEALHNHYTQKSLCLSPGK
modifications: here or on the partner: MC-vc-PAB-MMAE on Cys 239 and Cys 442 (S239C, S442C, EU numbering)
B2: D10 F05-hFc (S239/442C T366Y/Y407T) [G4S]1 conjugated to MC-vc-PAB-MMAE (Fc fusion, DAR 4.0)
chain 1: QVQLVESGGGLVQPGGSLRLSCAASGSIFSVNTMGWYRQAPGKQRDLVAVATSGGTIHYADSVKGRFTISRDNAKNTVYLQMNSLKPEDTAVYYCNLVVPYGMIAGDHDYWGQGTKVTVSSGGGGSEPKSSDKTHTCPPCPAPELLGGPCVFLFPPKPKDTLMISRTPEVTCVVVDVSHEDPEVKFNWYVDGVEVHNAKTKPREEQYNSTYRVVSVLTVLHQDWLNGKEYKCKVSNKALPAPIEKTISKAKGQPREPQVYTLPPSRDELTKNQVSLYCLVKGFYPSDIAVEWESNGQPENNYKTTPPVLDSDGSFFLYSKLTVDKSRWQQGNVFSCSVMHEALHNHYTQKSLCLSPGK
chain 2: QVQLVESGGGLVQAGGSLRLSCAASGRAFGDYNIGWFRQAPGKEREFVARRTWDGSSTRYDDSVKGRFTVSIDNAKNTAYLQMNSLKTEDTAVYYCAAGRYSRVRGWEYDYWGQGTQVTVSSGGGGSEPKSSDKTHTCPPCPAPELLGGPCVFLFPPKPKDTLMISRTPEVTCVVVDVSHEDPEVKFNWYVDGVEVHNAKTKPREEQYNSTYRVVSVLTVLHQDWLNGKEYKCKVSNKALPAPIEKTISKAKGQPREPQVYTLPPSRDELTKNQVSLTCLVKGFYPSDIAVEWESNGQPENNYKTTPPVLDSDGSFFLTSKLTVDKSRWQQGNVFSCSVMHEALHNHYTQKSLCLSPGK
modifications: here or on the partner: MC-vc-PAB-MMAE on Cys 239 and Cys 442 (S239C, S442C, EU numbering)
B3: D10 E06-hFc (S239/442C T366Y/Y407T) [G4S]3 conjugated to MC-vc-PAB-MMAE (Fc fusion, DAR 4.0)
chain 1: QVQLVESGGGLVQPGGSLRLSCAASGSIFSVNTMGWYRQAPGKQRDLVAVATSGGTIHYADSVKGRFTISRDNAKNTVYLQMNSLKPEDTAVYYCNLVVPYGMIAGDHDYWGQGTKVTVSSGGGGSGGGGSGGGGSEPKSSDKTHTCPPCPAPELLGGPCVFLFPPKPKDTLMISRTPEVTCVVVDVSHEDPEVKFNWYVDGVEVHNAKTKPREEQYNSTYRVVSVLTVLHQDWLNGKEYKCKVSNKALPAPIEKTISKAKGQPREPQVYTLPPSRDELTKNQVSLYCLVKGFYPSDIAVEWESNGQPENNYKTTPPVLDSDGSFFLYSKLTVDKSRWQQGNVFSCSVMHEALHNHYTQKSLCLSPGK
chain 2: QVHLVESGGGLVQAGGSLRLSCAASRRSFSEYAMGWFRQAPGKEREFVAAIGWSGVIEYADSVKGRFTISRDNAKDTVYLQMNSLKPEDTAVYYCAAGLGIRVVSQTPAYWGQGTQVTVSSGGGGSGGGGSGGGGSEPKSSDKTHTCPPCPAPELLGGPCVFLFPPKPKDTLMISRTPEVTCVVVDVSHEDPEVKFNWYVDGVEVHNAKTKPREEQYNSTYRVVSVLTVLHQDWLNGKEYKCKVSNKALPAPIEKTISKAKGQPREPQVYTLPPSRDELTKNQVSLTCLVKGFYPSDIAVEWESNGQPENNYKTTPPVLDSDGSFFLTSKLTVDKSRWQQGNVFSCSVMHEALHNHYTQKSLCLSPGK
modifications: here or on the partner: MC-vc-PAB-MMAE on Cys 239 and Cys 442 (S239C, S442C, EU numbering)
B4: D10 F05-hFc (S239/442C T366Y/Y407T) [G4S]3 conjugated to MC-vc-PAB-MMAE (Fc fusion, DAR 3.9)
chain 1: B3 chain 1
chain 2: B1 chain 2
modifications: here or on the partner: MC-vc-PAB-MMAE on Cys 239 and Cys 442 (S239C, S442C, EU numbering)

The assay concerns the target ALPP/ALPPL2 on ALPP/ALPPL2 positive cancer cells. Briefly: cell-based or functional assay.
B1 showed a % viability remaining, MDA-MB-468 cells of 17%; a % viability remaining, MKN-1 cells of 16%; a % viability remaining, NCI-H1651 cells of 22%; a % viability remaining, NCI-N87 cells of 36%. This molecule had an IC50 at 96 h (nM), cell-killing of MDA-MB-468 cells (Cell Titre Glo) of 12 nM; an IC50 at 96 h (nM), cell-killing of MKN-1 cells (Cell Titre Glo) of 0.26 nM; an IC50 at 96 h (nM), cell-killing of NCI-H1651 cells (Cell Titre Glo) of 0.47 nM; a half-inhibitory concentration (IC50) at 96 h (nM), cell-killing of NCI-N87 cells (Cell Titre Glo) of 7.9 nM.
B2 returned a % viability remaining, MDA-MB-468 cells of 17%; a % viability remaining, MKN-1 cells of 16%; a % viability remaining, NCI-H1651 cells of 22%; a % viability remaining, NCI-N87 cells of 35%. Moreover, the concentration for half-maximal inhibition (IC50) at 96 h (nM), cell-killing of MDA-MB-468 cells (Cell Titre Glo) turned out to be 2.36 nM; the IC50 at 96 h (nM), cell-killing of MKN-1 cells (Cell Titre Glo) was 0.14 nM; the IC50 at 96 h (nM), cell-killing of NCI-H1651 cells (Cell Titre Glo) turned out to be 0.85 nM; the IC50 at 96 h (nM), cell-killing of NCI-N87 cells (Cell Titre Glo) amounted to 2 nM.
On to B3, for which the % viability remaining, MDA-MB-468 cells is 16%; the % viability remaining, MKN-1 cells was found to be 12%; the % viability remaining, NCI-H1651 cells was determined as 21%; the % viability remaining, NCI-N87 cells was determined as 34%. Also, the IC50 at 96 h (nM), cell-killing of MDA-MB-468 cells (Cell Titre Glo) came out at 1.55 nM; the 50% inhibitory concentration (IC50) at 96 h (nM), cell-killing of MKN-1 cells (Cell Titre Glo) is 0.1 nM; the IC50 at 96 h (nM), cell-killing of NCI-H1651 cells (Cell Titre Glo) is 0.53 nM; the IC50 at 96 h (nM), cell-killing of NCI-N87 cells (Cell Titre Glo) amounted to 3.6 nM.
Take B4: the % viability remaining, MDA-MB-468 cells worked out at 17%; the % viability remaining, MKN-1 cells was 13%; the % viability remaining, NCI-H1651 cells is 22%; the % viability remaining, NCI-N87 cells was 37%. The same molecule returned an IC50 at 96 h (nM), cell-killing of MDA-MB-468 cells (Cell Titre Glo) of 0.96 nM; an IC50 at 96 h (nM), cell-killing of MKN-1 cells (Cell Titre Glo) of 0.12 nM; an IC50 at 96 h (nM), cell-killing of NCI-H1651 cells (Cell Titre Glo) of 0.74 nM; a concentration for half-maximal inhibition (IC50) at 96 h (nM), cell-killing of NCI-N87 cells (Cell Titre Glo) of 1.8 nM.
